# Columns and labels:
# [1] = target: IcmQ with a C-terminal 6xHis-tag (Legionella pneumophila); assay: SEC
# [2] = target: IcmQ with a C-terminal 6xHis-tag (Legionella pneumophila); assay: […]
# [3] = target: Qn(1-57), N-terminal domain of IcmQ (Legionella pneumophila); assay: SEC
Substance,stoichiometry N [1],stoichiometry N [2],stoichiometry N [3]
IcmQ with a C-terminal 6xHis-tag (natural protein),2,2,–
"Qn(1-57), N-terminal domain of IcmQ (domain or fragment)",–,–,2

# Reference: paper PMC2693034
